Laboratory results taken from paper PMC9573943, “Contribution of the 12–17 hydrophobic region of islet amyloid polypeptide in self-assembly and cytotoxicity” (Frontiers in Molecular Biosciences, 2022).
Bridge positions count the residues as written; N and C are the ends. Ends that are not written are not given here.

Tests used:
[1] = Peptide self-assembly under fully quiescent conditions (CD, ThT and ANS fluorescence, TEM, AFM); format: physicochemical; conditions: 50 μM peptide; for Assemblies observed by TEM after 48 h incubation: negative stain TEM; for Overall effect of the substitution on amyloid formation, in words: CD, ThT, ANS, TEM, compared with unmodified IAPP; for Incubation time at which the random coil to β-sheet conformational transition is seen (far-UV CD) / Secondary conformation / conformational transition over incubation (far-UV CD), in words: fully quiescent; for Incubation time at which the random coil to β-sheet conformational transition is seen (far-UV CD): microtubes, diluted to 25 μM for CD; for ThT fluorescence of incubated peptide, in words: diluted to 25 μM with 40 μM ThT; for Secondary conformation / conformational transition over incubation (far-UV CD), in words: up to 7 days
Protocol: Solutions were prepared by dissolving the peptide at a concentration of 50 μM in 20 mM Tris-HCl, pH 7.4, and were incubated at room temperature without agitation in 1.5 ml Eppendorf microtubes. For IAPP12-17, the lyophilized peptide was dissolved in 20 mM acetate pH 6.5 in the presence of 3% DMSO, or HFIP, at a final concentration of 500 μM and the peptide solution was incubated at 37 °C under constant rotational agitation.
At the indicating time of incubation, peptide solutions were diluted to 25 μM in presence of 40 μM ThT, or 25 μM 8-anilino-1-naphthalenesulfonic acid (ANS). Fluorescence was measured in 10-mm pathlength microcells using a PTI QuantaMaster spectrofluorometer. For ThT, excitation was set at 440 nm, and the emission spectrum from 450 to 550 nm was recorded. For ANS, the excitation was set at 355 nm, and the emission scan was recorded from 385 to 585 nm.
After incubation, peptide solutions were diluted in water to 25 μM and incorporated into a 2-mm path length quartz cell. For IAPP12-17, the solution was diluted to 150 μM. Far-UV CD spectra were recorded from 190 to 260 nm using a Jasco J-815 CD spectropolarimeter at 25°C. The wavelength step was set at 0.5 nm with an average time of 10 s per scan at each wavelength. Spectra were background-subtracted with buffer solution. Raw data were converted to mean residue ellipticity (MRE): MRE=Mean residue weight (g/mol)X CD signal (deg)/10 X pathlength (cm) X peptide concentration (g/mL)
After incubation, peptide solutions were diluted to 10 μM, or 100 μΜ for IAPP12-17, before being applied on glow-discharged carbon films on 300-mesh copper grids. Samples were adsorbed and negatively stained with 1.5% uranyl formate for 45 s. Images were recorded using a FEI Tecnai G2 Spirit Twin microscope operating at 120 kV and equipped with a Gatan Ultrascan scan 4,000 4k × 4k CCD camera system.
After incubation, peptide solutions were diluted in 1% acetic acid to a concentration of 7.5 μΜ. […] Images were recorded using Veeco/Bruker multimode AFM instrument using ScanAsyst-air mode with a silicon tip (2–12 nm tip radius, 0.4 N/m force) on a nitride lever. Images were taken at 0.977 Hz and 512 scan/min.

INS-1E cells [2] = assay: Cell viability by resazurin reduction; format: cell-based, Rat; conditions: freshly dissolved peptide up to 50 μM, 24 h, at least five assays
Protocol: (§1) Rat INS-1E cells were cultured in treated black-wall clear-bottom 96-well plates at a density of 25,000 cell/well in RPMI-1640 medium supplemented with 10% FBS, 2 mM L-glutamine, 100 U/ml penicillin, 100 μg/ml streptomycin, 10 mM HEPES, 1 mM sodium pyruvate and 50 μM β-mercaptoethanol. After 48 h of incubation at 37°C in 5% CO2, cells were treated with 50 μL of peptide freshly dissolved in 20 mM Tris-HCl, pH 7.4. […] Cell viability (%) was calculated from the ratio of the fluorescence of the treated cells to the vehicle-treated cells. Data of at least five assays performed with different peptide lots were averaged and expressed as the mean ± S.D. Statistical analysis was performed using Student’s t test, and statistically significant difference was established at (*) p < 0.05; (**) p < 0.005; (***) p < 0.0005. For Live/Dead viability assay, cells were plated in 12-well plates at density of 250,000 cell/well for 48 h before treatment with 25 μM peptide.

[3] = Kinetics of amyloid formation monitored by ThT fluorescence; format: physicochemical; conditions: 40 μM ThT, 20 mM Tris-HCl pH 7.4, 25°C, no agitation
Protocol: Aggregation mixtures were prepared by dissolving the lyophilized peptide at a concentration of 50 μM in 20 mM Tris-HCl, pH 7.4. Assays were performed at 25°C without stirring in sealed black-wall clear-bottom 96-well nonbinding surface plates with 100 μL/well. Final peptide concentrations were 12.5 and 25 μM, and thioflavin T (ThT) concentration was fixed at 40 μM. Fluorescence was measured every 10 min (excitation: 440 nm, emission: 485 nm) and data from triplicate wells were averaged, corrected by subtracting the blank control, and plotted as ThT fluorescence vs. time. Data were normalized with maximum ThT fluorescence intensity obtained for unmodified IAPP. Data were fitted to a sigmoidal Boltzmann model: Y=Yo+(Ymax−Yo)/1+e^−(T−T50)/ K where T 50 is the time required to reach half of the maximum fluorescence intensity, k is the apparent first-order constant, and Y max and Y 0 are the maximum and initial ThT fluorescence values. Lag time corresponds to T50 - 2/k. Data of at least six assays performed with different peptide lots were averaged and expressed as the mean ± S.D. Statistical analysis was performed using Student’s t test, and statistically significant difference between IAPP and analogs was established at (*) p < 0.05; (**) p < 0.005; (***) p < 0.0005.

INS-1E cells [4] = assay: Live/Dead viability assay (calcein-AM / ethidium homodimer-1, fluorescence microscopy); format: cell-based, Rat; conditions: 25 μM freshly solubilized peptide, 24 h, calcein-AM (green, live) and ethidium homodimer-1 (red, dead)
Protocol: as §1

[5] = 20 mM Tris-HCl pH 7.4, quiescent
[6] = 20 mM Tris-HCl pH 7.4, room temperature

Substance | Assemblies observed by TEM after 48 h incubation [1, 5] | Overall effect of the substitution on amyloid formation, in words [1, 5] | Incubation time at which the random coil to β-sheet conformational transition is seen (far-UV CD) [1, 6] [h] | Cytotoxicity compared with unmodified IAPP, in words (INS-1E cells [2]) | ThT fluorescence of incubated peptide, in words [1, 5] | Secondary conformation / conformational transition over incubation (far-UV CD), in words [1, 6] | also measured
A13G: full-length IAPP with Ala13 substituted by Gly (KCNTATCATQRLGNFLVHSSNNFGAILSSTNVGSNTY; disulfide 2-7; ends not checked; UniProt P10997 34-70, looked up, variant A13G) | presence of fibrillar aggregates | accelerates IAPP amyloid self-assembly | ≤ 6 | higher cytotoxicity compared to unmodified IAPP |  |  | 
A13P: full-length IAPP with Ala13 substituted by Pro (KCNTATCATQRLPNFLVHSSNNFGAILSSTNVGSNTY; disulfide 2-7; ends not checked; UniProt P10997 34-70, looked up, variant A13P) | Prototypical fibrils | accelerated amyloid formation | 4 | increased the cytotoxicity of IAPP at 12.5 and 25 μM |  |  | Incubation time at which ThT and ANS positive signal arises ([1]; 20 mM Tris-HCl pH 7.4, quiescent, diluted to 25 μM with 40 μM ThT or 25 μM ANS): 6 h
F15P: full-length IAPP with Pro at position Phe15 (KCNTATCATQRLANPLVHSSNNFGAILSSTNVGSNTY; disulfide 2-7; ends not checked; UniProt P10997 34-70, looked up, variant F15P) | absence fibrillar aggregates |  |  |  |  |  | Assemblies observed by AFM after 96 h incubation ([1]; 20 mM Tris-HCl pH 7.4, room temperature, no agitation, 96 h): typical fibrils
L12A: full-length IAPP with Leu→Ala substitution at position 12 (KCNTATCATQRAANFLVHSSNNFGAILSSTNVGSNTY; disulfide 2-7; ends not checked; UniProt P10997 34-70, looked up, variant L12A) | long and twisted fibrils |  |  | reduced IAPP toxicity | absence of a ThT-signal | remained mainly under a random coil structure after a week of incubation | Increase of ThT fluorescence signal ([3]; 12.5 μM peptide): no increase of ThT fluorescence signal could be detected; Lag time of amyloid formation ([3]; 25 μM peptide, nonbinding surface 96-well plate, read every 10 min, lag time = T50 - 2/k, mean ± S.D. of at least six assays): 13.5 ± 4.1 h; ANS fluorescence of incubated peptide, in words ([1]; 20 mM Tris-HCl pH 7.4, quiescent, diluted to 25 μM with 25 μM ANS): low ANS fluorescence; Cell death in Live/Dead assay, in words (INS-1E cells [4]): decreased toxicity compared to unmodified IAPP
L16P: full-length IAPP with Leu16 substituted by Pro (KCNTATCATQRLANFPVHSSNNFGAILSSTNVGSNTY; disulfide 2-7; ends not checked; UniProt P10997 34-70, looked up, variant L16P) |  | completely inhibited amyloid formation |  | less cytotoxic than unmodified IAPP | absence of a ThT and ANS signal | random coil conformation observed after 7 days incubation | 
N14P: full-length IAPP with Pro at position Asn14 (KCNTATCATQRLAPFLVHSSNNFGAILSSTNVGSNTY; disulfide 2-7; ends not checked; UniProt P10997 34-70, looked up, variant N14P) |  |  | 24 |  |  |  | Assemblies observed by AFM after 24 h incubation ([1]; 20 mM Tris-HCl pH 7.4, room temperature, no agitation, 24 h): dense network of fibrils
